Experimental findings from US20090148907A1, “NOVEL FRUCTOFURANOSIDASE ACTIVITY FOR OBTAINING THE PREBIOTIC OLIGOSACCHARIDE 6-KESTOSE” (CONSEJO SUPERIOR DE INVESTIGACIONES CIENTIFICAS, priority 2005, published 2009) are described below.

Assay type in all cases: biochemical
Data set [1] is described as follows: Fructofuranosidase activity of fractions during purification. As to conditions: eluted at 0.2 M of salt, DEAE-Sephacel pH 5. As to the method: The cell free fraction was obtained by centrifugation (F-0) of a culture of S. occidentalis ATCC26077 grown at 29° C. and 235 rpm. Fructofuranosidase activity was assayed in the latter, determining the glucose release on different substrates. A colorimetric assay and the standard methodology were used. The released glucose was quantified using the glucose oxidase-peroxidase coupled reaction: 0.4 ml of the solution to be determined was mixed with 0.1 ml of A:B (20:1) solution (A: 0.85 U/ml glucose oxidase, 0.40 U/ml peroxidase in sodium phosphate buffer pH 5; B: 0.6% O-dianisidine). It was incubated for 30 minutes at 37° C. and spectrophotometrically quantified at 450 nm. A standard glucose curve (0 to 100 μg/ml) was used. The fructofuranosidase activity unit is defined in μmol/ml min of glucose determined in the described conditions.
For the purification of the enzyme, 2 liters of extracellular fraction of S. occidentalis, with a fructofuranosidase activity of 0.58 U/ml, were used to begin. The following method was used:
1) Concentration of the extracellular fraction using a tangential filtration system (30 kDa fitter) followed by dialysis against 20 mM HCl-Tris pH 7 (buffer A) for 2 hours at a temperature of 4° C. […]
3) Ion exchange chromatography to pH 5. […] The fructofuranosidase activity determined as previously indicated eluted at 0.2 M of salt and was 0.33 U (F-3).

The nature of data set [2]: Fructofuranosidase activity at different pH and temperatures. To be noted: solution of pure protein, on sucrose. As for the experimental part: The fructofuranosidase activity was assayed at different pH and temperatures. Maximum activity levels were obtained in a pH range comprised, between 5 and 6 units at 50° C. and at a temperature of 40 and 55° C.
FIG. 3 indicates the enzymatic activity in function of the pH and of the temperature, showing the corresponding maximums. The assays were performed on sucrose using a solution of pure protein. 100% corresponds to an activity of 5.59 U/ml. FIG. 3A: fructofuranosidase activity was determined at different pHs (3-9 pH units), an assay temperature of 50° C. and sodium citrate, sodium phosphate and HCl-Tris buffer (all of them 100 mM) for the pH range of 3-4.5, 5.0-7.5 and 8.0-9.0, respectively. FIG. 3B: the temperature assay (30-70° C.) was performed in 50 mM sodium phosphate pH 5.5.

In data set [3] the target is T1, fructofuranosidase of S. occidentalis (pure enzyme F-3) (Schwanniomyces occidentalis, UniProt P24133).
T1 construct: the enzyme object of the invention is extracellularly released; endogenous in cells; host or cells: Schwanniomyces occidentalis culture supernatant; concentrated (F-1), then DEAE-Sephacel at pH 7 (F-2) and at pH 5 (F-3)
T1 sequence (P24133 whole entry, looked up): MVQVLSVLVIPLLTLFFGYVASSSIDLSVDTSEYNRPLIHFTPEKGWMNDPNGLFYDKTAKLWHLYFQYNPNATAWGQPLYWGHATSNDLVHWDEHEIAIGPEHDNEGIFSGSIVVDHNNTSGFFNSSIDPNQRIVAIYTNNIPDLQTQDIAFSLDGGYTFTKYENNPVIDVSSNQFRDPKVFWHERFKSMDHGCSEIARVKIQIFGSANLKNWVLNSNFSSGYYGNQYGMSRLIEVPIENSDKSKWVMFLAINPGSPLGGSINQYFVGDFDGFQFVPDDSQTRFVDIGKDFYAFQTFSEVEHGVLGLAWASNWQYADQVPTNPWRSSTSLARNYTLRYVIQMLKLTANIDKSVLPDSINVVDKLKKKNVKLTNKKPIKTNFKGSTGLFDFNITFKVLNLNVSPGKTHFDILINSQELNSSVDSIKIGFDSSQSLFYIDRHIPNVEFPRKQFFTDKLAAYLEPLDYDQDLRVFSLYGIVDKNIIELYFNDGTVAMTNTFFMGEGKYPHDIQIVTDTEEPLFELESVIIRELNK
Nature of the data set: Transfructosidase (transglycosylation) activity of pure enzyme F-3 on sucrose, HPLC. To be noted: after 144 hours at 50° C, high sucrose concentration. As for the experimental part:
The transglycosylation activity of the pure enzyme (fraction F-3) was assayed. A reaction was prepared using a high concentration of sucrose (510 g/l) and a final enzymatic activity in the reaction mixture of approximately 0.5 U/ml. […] It is seen that the profile of the obtained products is very similar in both cases, specifically the 6-kestose/1-kestose ratio that was obtained was 3.3.
After 144 hours of reaction, 42.6 g/l of FOS were obtained. The total percentage (w/w) of fructooligosaccharides was 8.4% this value being with respect to the total weight of carbohydrates in the medium.
A high concentration solution of sucrose ([…]) in 0.2 M sodium acetate buffer pH 5.6 was prepared. The fructofuranosidase was added until a final concentration in the reaction mixture of 0.5 U/ml (one unit U is the enzymatic activity corresponding to releasing a micromole of reducing sugars per minute, using 100 g/l of sucrose as substrate, in 0.2 M sodium acetate buffer pH 5.6, at 50° C.). The reaction mixture was incubated for 144 hours at 50° C., with orbital stirring at 700 rpm. Aliquots were extracted at different times, incubated for 5 minutes at 80° C. to inactivate the enzyme, diluted 1:2 (v/v) with water centrifuged for 5 minutes at 6000 rpm in an eppendorf tube with a 0.45 μm filter and analyzed by HPLC liquid chromatography. The profile of the products formed is seen in FIG. 7. Two trisaccharides were obtained: a majority trisaccharide, identified as 6-kestose, and another minority trisaccharide, identified as 1-kestose. At the final reaction time (144 h), the composition of the system was: 12.7% fructose, 14.80/glucose. 64.1% sucrose, 2.4% 1-kestose and 5.9% 6-kestose).

B1: F-3: purified fructofuranosidase of S. occidentalis with transfructosidase activity, SEQ. ID. NO: 1, 535 amino acids (protein, listed as Debaryomyces occidentalis)
chain: MVQVLSVLVIPLLTLFFGYVASSSIDLSVDTSEYNRPLIHFTPEKGWMNDPNGLFYDKTAKLWHLYFQYNPNATAWGQPLYWGHATSNDLVHWDEHEIAIGPEHDNEGIFSGSIVVDHNNTSGFFNSSIDPNQRIVAIYTNNIPDLQTQDIAFSLDGGYTFTKYENNPVIDVSSNQFRDPKVFWHEDSNQWIMVVLKSQEYKIQIFGSANLKNWVLNSNFSSGYYGNQYECPGLIEVPIENSDKSKWVMFLAINPGSPLGGSINQYFVGDFDGFQFVPDDSQTRFVDIGKDFYAFQTFSEVEHGVLGLAWASNWQYADQVPTNPWRSSTSLARNYTLRYVHTNAETKQLTLIQNPVLPDSINVVDKLKKKNVKLTNKKPIKTNFKGSTGLFDFNITFKVLNLNVSPGKTHFDILINSQELNSSVDSIKIGFDSSQSSFYIDRHIPNVEFPRKQFFTDKLAAYLEPLDYDQDLRVFSLYGIVDKNIIELYFNDGTVAMTNTFFMGEGKYPHDIQIVTDTEEPLFELESVIIRELNK
In the case of B1, the Fructofuranosidase activity in data set [1] is reported as 0.33 U. The “Activity corresponding to 100% in FIG. 3” value in data set [2] is recorded as 5.59 U/ml. In data set [3], the “Transfructosidase activity retained (in words)” value was “still maintains transfructosidase activity”.
